{"source": "paper PMC4890040", "assay_in_all_cases": "SEC; protein alone, prior to DNA binding; Superdex 200, 20 mM Tris pH 7.5, 0.2 M NaCl, 5 mM DTT, 4 °C, 50 μL/min; peaks assigned to monomer and dimer by elution times", "key": {"[1]": {"target": "L-Tgf2TPase(D228N, E648Q) (goldfish (Carassius auratus))"}, "[2]": {"target": "S1-Tgf2TPase (truncated Tgf2 transposase, 110-686 aa) (goldfish (Carassius auratus))"}, "[3]": {"target": "S2-Tgf2TPase (truncated Tgf2 transposase, 124-686 aa) (goldfish (Carassius auratus))"}, "[4]": {"target": "full length Tgf2 transposase (L-Tgf2TPase) (goldfish (Carassius auratus))"}}}
{"substance": "L-Tgf2TPase(D228N, E648Q) (enzyme)", "values": [{"measurement": "stoichiometry N", "setting": "[1]", "value": 2}]}
{"substance": "S1-Tgf2TPase (truncated Tgf2 transposase, 110-686 aa) (domain or fragment)", "values": [{"measurement": "stoichiometry N", "setting": "[2]", "value": 2}]}
{"substance": "S2-Tgf2TPase (truncated Tgf2 transposase, 124-686 aa) (domain or fragment)", "values": [{"measurement": "stoichiometry N", "setting": "[3]", "value": 2}]}
{"substance": "full length Tgf2 transposase (L-Tgf2TPase) (enzyme)", "values": [{"measurement": "stoichiometry N", "setting": "[4]", "value": 2}]}
